As a reminder, the stoichiometry N is a count of units in the complex or per binding partner.

The target of assay [1] is Aβ42 F19,20T/I31P MRF (AβMRF carrying the triple mutation Phe19,20Thr and Ile31Pro in its Aβ42 portion) (not stated | S. cerevisiae) (UniProt P05453). As to the kind of experiment: SDS electrophoresis of SDS-stable oligomers with immunoblot; yeast lysates treated with 1% SDS for 7 min at room temperature, resolved in 1.5% agarose or 7.5% polyacrylamide gels, blotted with anti-RF (BE4) or anti-Aβ (6E10); cells also grown with 6.3 mM guanidine or with HSP104 deleted; densitometry. On the technique in general: In western blotting, separated proteins are transferred to a membrane and probed.

In assay [2] the target is AβMRF (met-Aβ42-HA-M-3xHA-RF; Aβ42 fused to the N terminus of Sup35p MRF) (not stated | S. cerevisiae) (UniProt P05453). The description is as above.

Values joined by “and” are separate entries in the source; they are usually repeats but may differ in a detail not shown here. Equal entries are not always repeated.

For “Aβ42 F19,20T/I31P MRF (AβMRF carrying the triple mutation Phe19,20Thr and Ile31Pro in its Aβ42 portion) (from UniProt P05453 124-685)”, the stoichiometry N in assay [1] was 2.
In the case of “AβMRF (met-Aβ42-HA-M-3xHA-RF; Aβ42 fused to the N terminus of Sup35p MRF) (from UniProt P05453 124-685)”, in assay [2], the monomer's share of the pool (HSP104 WT cells) worked out at 34%; the monomer's share of the pool (hsp104Δ cells) was 47%; the stoichiometry N is 2 and 3 and 4.

Values taken from PMC1594584.
